FC and Log2(FC) data for 40 substances are collected here from patent US20240391961A1.

Assay [1] concerns the target 14-3-3ζ nhpSer58 with a FLAG tag at its N-terminus (Homo sapiens (Human)) (UniProt P63104).
The target is the same in assay [2]. The assay can be described thus: pulldown from HEK293 lysate, MS; nhpSer58 bait vs WT bait (reference).

Like-named read-outs stand apart in the source and are kept apart here.

14-3-3ζ nhpSer58 with a FLAG tag at its N-terminus (Homo sapiens (Human)), sequence (P63104 whole entry): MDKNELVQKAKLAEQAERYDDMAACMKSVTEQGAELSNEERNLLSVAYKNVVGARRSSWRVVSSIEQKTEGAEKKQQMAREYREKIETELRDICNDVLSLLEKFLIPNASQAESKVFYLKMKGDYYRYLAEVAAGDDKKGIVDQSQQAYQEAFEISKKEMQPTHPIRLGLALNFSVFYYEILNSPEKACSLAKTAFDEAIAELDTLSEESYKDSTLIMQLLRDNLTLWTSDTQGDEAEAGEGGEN

With “Serpin B4 [OS = Homo sapiens] (from UniProt P48594 1-390)”, in assay [1], the FC amounted to 36.3 fold.
On the same count and under the same terms, in the case of “Acyl-CoA dehydrogenase family member 10 [OS = Homo sapiens] (from UniProt Q6JQN1 1-1059)” it was 4.04 fold; in that of “Protein disulfide-isomerase A6 [OS = Homo sapiens] (from UniProt Q15084 20-440)”, 38.4 fold.
Still for that read-out and setting: the value for “A-kinase anchor protein 9 [OS = Homo sapiens], Q99996 1-3907” was 0.0561 fold.
With “14-3-3 protein zeta/delta [OS = Homo sapiens] (from UniProt P63104 1-245)”, in assay [2], the FC turned out to be 0.0821 fold and the Log2(FC) was -3.61 log2.
With “striatin [OS = Homo sapiens] (from UniProt O43815 1-780)”, the FC in assay [1] came out at 4.33 fold.
On the same count and under the same terms, in the case of “Intraflagellar transport protein 22 homolog [OS = Homo sapiens] (from UniProt Q9H7X7 1-185)” it was 16.3 fold; in that of “Desmoglein-1 [OS = Homo sapiens] (from UniProt Q02413 50-1049)”, 7.08 fold.
On the same count and under the same terms, in the case of “Translin-associated protein X [OS = Homo sapiens] (from UniProt Q99598 1-290)” it was 6.28 fold; in that of “Pre-mRNA-splicing factor ATP-dependent RNA helicase DHX15 [OS = Homo sapiens] (from UniProt O43143 1-795)”, 6.21 fold; in that of “DNA methyltransferase 1-associated protein 1 [OS = Homo sapiens] (from UniProt Q9NPF5 1-467)”, 6.86 fold.
Still for that read-out and setting: in the case of “Exportin-1 [OS = Homo sapiens] (from UniProt O14980 1-1071)” it was 7.95 fold.
Take “Annexin A2 [OS = Homo sapiens] (from UniProt P07355 2-339)”: the FC in assay [1] is 24.6 fold.
“Cleavage stimulation factor subunit 3 [OS = Homo sapiens] (from UniProt Q12996 2-717)”: the FC in assay [1] worked out at 8.68 fold.
The same measure, in the same setting: in the case of “Platelet-activating factor acetylhydrolase IB subunit alpha [OS = Homo sapiens] (from UniProt P43034 1-410)” it was 7.47 fold; in that of “Apoptosis-stimulating of p53 protein 2 [OS = Homo sapiens] (from UniProt Q13625 1-1128)”, 6.29 fold; in that of “Protein S100-A9 [OS = Homo sapiens] (from UniProt P06702 1-114)”, 4.73 fold.
Substance “opioid growth factor receptor [OS = Homo sapiens] (from UniProt Q9NZT2 1-677)” showed an FC in assay [1] of 7.06 fold.
On the same count and under the same terms, the value for “Talin-1 [OS = Homo sapiens] (from UniProt Q9Y490 1-2541)” was 12.7 fold; that for “SAGA-associated factor 29 [OS = Homo sapiens] (from UniProt Q96ES7 1-293)” was 9.02 fold.
The same measure, in the same setting: the value for “Junction plakoglobin [OS = Homo sapiens] (from UniProt P14923 1-745)” was 4.8 fold; that for “HAUS augmin-like complex subunit 5 [OS = Homo sapiens] (from UniProt O94927 1-633)” was 7.34 fold.
On to “Centrosomal protein of 55 kDa [OS = Homo sapiens] (from UniProt Q53EZ4 1-464)”, for which the FC in assay [1] was 4.5 fold.
Still for that read-out and setting: the value for “Polyadenylate-binding protein 1 [OS = Homo sapiens] (from UniProt P11940 1-636)” was 0.182 fold.
Still for that read-out and setting: in the case of “Cytochrome c oxidase subunit 5A, mitochondrial [OS = Homo sapiens] (from UniProt P20674 42-150)” it was 0.223 fold; in that of “Keratin, type I cytoskeletal 13 [OS = Homo sapiens] (from UniProt P13646 1-458)”, 8.89 fold; in that of “Intraflagellar transport protein 81 homolog [OS = Homo sapiens] (from UniProt Q8WYA0 2-676)”, 21.9 fold.
In the case of “E3 ubiquitin-protein ligase MYCBP2 [OS = Homo sapiens] (from UniProt O75592 1-4678)”, the FC in assay [1] was 0.234 fold.
The same measure, in the same setting: the value for “Cyclin-dependent kinase 2-associated protein 1 [OS = Homo sapiens] (from UniProt O14519 1-115)” was 4.42 fold.
For the substance “Ketosamine-3-kinase [OS = Homo sapiens] (from UniProt Q9HA64 1-309)”, the FC in assay [1] worked out at 9.56 fold.
Same read-out and setting: in the case of “Neurofibromin [OS = Homo sapiens] (from UniProt P21359 2-2839)” it was 0.165 fold; in that of “BRCA2-interacting transcriptional repressor EMSY [OS = Homo sapiens] (from UniProt Q7Z589 1-1322)”, 9.69 fold; in that of “Protein S100-A7 [OS = Homo sapiens] (from UniProt P31151 2-101)”, 64.8 fold.
The substance “Arginase-1 [OS = Homo sapiens] (from UniProt P05089 1-322)” returned an FC in assay [1] of 6.22 fold.
Same read-out and setting: the value for “F-box only protein 50 [OS = Homo sapiens] (from UniProt Q6ZVX7 1-275)” was 4.55 fold; that for “Melanoma-associated antigen D2 [OS = Homo sapiens] (from UniProt Q9UNF1 2-606)” was 63.1 fold.
In turn, “exosome complex exonuclease RRP44 [OS = Homo sapiens] (from UniProt Q9Y2L1 1-958)” returned an FC in assay [1] of 5.09 fold.
Substance “Keratin, type II cytoskeletal 78 [OS = Homo sapiens] (from UniProt Q8N1N4 1-520)” had an FC in assay [1] of 6.98 fold.
In assay [1], “Protein cereblon [OS = Homo sapiens] (from UniProt Q96SW2 1-442)” yielded an FC of 8.91 fold.
“nuclear pore complex protein Nup98-Nup96 [OS = Homo sapiens] (from UniProt P52948 1-1817)” registered an FC in assay [1] of 5.93 fold.
